We go through 2 substances from patent US9345662B2, “Degradable hydrogel compositions and methods” (RUTGERS, THE STATE UNIVERSITY OF NEW JERSEY, priority 2008, dated 2016).

A short description of this series: In vitro release (cumulative cleavage) from PEG-Glu-Lys conjugates in PBS (fluorescamine assay). Type of series: physicochemical. As for the experimental part: PEG-Glu(NH2)-(α)Lys(Z)OMe conjugate (15 mg) was dissolved in PBS (15 ml) and incubated at 37° C. Aliquots (50 μL) were taken at regular time intervals and the sample aliquots were dried using a CentriVap (Labconco Corporation, Kansas City, Mo.). The cumulative cleavage (%) of Lys(Z)OMe from PEG-Glu(NH2)-(α)Lys(Z)OMe conjugate was measured using fluorescamine assay^24.
PEG-Glu(NH2)-(ε)Lys(Z)OMe conjugates (15 mg) was dissolved in PBS (15 ml) and incubated at […] Aliquots (50 μL) were taken at regular time intervals and the sample aliquots were dried using a CentriVap (Labconco Corporation, Kansas City, Mo.). The cumulative cleavage (%) of Z-LysOMe from PEG-Glu(NH2)-(ε)Lys(Z)OMe conjugate was measured using fluorescamine assay^24.

For the substance “PEG-Glu(NH2)-(ε)Lys(Z)OMe [PEG-Glu(NH2)-(ε)Lys(Z)OMe conjugate]”, the “Z-LysOMe released from conjugate” value (7° C., at the time under E15) came out at 99%. Moreover, the “time of Z-LysOMe release from conjugate” value (7° C., extent under E14) is given as about 29 h.

“PEG-Glu(NH2)-(α)Lys(Z)OMe [PEG-Glu(NH2)-(α)Lys(Z)OMe conjugate]”: for the setting “37° C., at the time under E13”, the “release (cumulative cleavage) of Lys(Z)OMe from conjugate” value is on record as about 99%. In addition, the “time of Lys(Z)OMe release from conjugate” value (37° C., extent under E12) was found to be 490 h.
